Laboratory results taken from US20110118131A1 (published 2011).

What follows are binders tested against T1, IL-1beta (UniProt P01584 117-269) (assay: Biacore).
T1 construct: also called IL-1β

| fold difference in affinity vs parental [fold] | binding result | Binder |
| --- | --- | --- |
| 1.14 | – | XPA23 Fab, heavy chain T58R (Fab, V domains shown) VH: EVQLLESGGGLVQPGGSLRLSCAASGFTFSKYFMFWVRQAPGKGLEWVSVISPSGGMRRYADSVKGRFTISRDNSKNTLYLQMNSLRAEDTAVYYCARVGYGGNSDYWGQGTLVTVSS VL: DIQMTQSPSSVSASVGDRLTIICRASQDINRWLAWYQQTPGNAPKLLIHSATSLQSGVPSRFSGSGSGTDFTLTINSLQPEDFATYYCQQADSFPLTFGGGTKVEIK |
| – | no binding | XPA23 Fab, heavy chain V99S (Fab, V domains shown) VH: EVQLLESGGGLVQPGGSLRLSCAASGFTFSKYFMFWVRQAPGKGLEWVSVISPSGGMTRYADSVKGRFTISRDNSKNTLYLQMNSLRAEDTAVYYCARSGYGGNSDYWGQGTLVTVSS VL: DIQMTQSPSSVSASVGDRLTIICRASQDINRWLAWYQQTPGNAPKLLIHSATSLQSGVPSRFSGSGSGTDFTLTINSLQPEDFATYYCQQADSFPLTFGGGTKVEIK |
| – | no binding | XPA23 Fab, heavy chain V50E (Fab, V domains shown) VH: EVQLLESGGGLVQPGGSLRLSCAASGFTFSKYFMFWVRQAPGKGLEWVSEISPSGGMTRYADSVKGRFTISRDNSKNTLYLQMNSLRAEDTAVYYCARVGYGGNSDYWGQGTLVTVSS VL: DIQMTQSPSSVSASVGDRLTIICRASQDINRWLAWYQQTPGNAPKLLIHSATSLQSGVPSRFSGSGSGTDFTLTINSLQPEDFATYYCQQADSFPLTFGGGTKVEIK |
| 0.93 | – | XPA23 Fab, heavy chain T58W (Fab, V domains shown) VH: EVQLLESGGGLVQPGGSLRLSCAASGFTFSKYFMFWVRQAPGKGLEWVSVISPSGGMWRYADSVKGRFTISRDNSKNTLYLQMNSLRAEDTAVYYCARVGYGGNSDYWGQGTLVTVSS VL: DIQMTQSPSSVSASVGDRLTIICRASQDINRWLAWYQQTPGNAPKLLIHSATSLQSGVPSRFSGSGSGTDFTLTINSLQPEDFATYYCQQADSFPLTFGGGTKVEIK |
| 0.03 | – | XPA23 Fab, heavy chain V99F (Fab, V domains shown) VH: EVQLLESGGGLVQPGGSLRLSCAASGFTFSKYFMFWVRQAPGKGLEWVSVISPSGGMTRYADSVKGRFTISRDNSKNTLYLQMNSLRAEDTAVYYCARFGYGGNSDYWGQGTLVTVSS VL: DIQMTQSPSSVSASVGDRLTIICRASQDINRWLAWYQQTPGNAPKLLIHSATSLQSGVPSRFSGSGSGTDFTLTINSLQPEDFATYYCQQADSFPLTFGGGTKVEIK |
| – | no binding | XPA23 Fab, heavy chain V50F (Fab, V domains shown) VH: EVQLLESGGGLVQPGGSLRLSCAASGFTFSKYFMFWVRQAPGKGLEWVSFISPSGGMTRYADSVKGRFTISRDNSKNTLYLQMNSLRAEDTAVYYCARVGYGGNSDYWGQGTLVTVSS VL: DIQMTQSPSSVSASVGDRLTIICRASQDINRWLAWYQQTPGNAPKLLIHSATSLQSGVPSRFSGSGSGTDFTLTINSLQPEDFATYYCQQADSFPLTFGGGTKVEIK |
| – | no binding | XPA23 Fab, heavy chain V50Y (Fab, V domains shown) VH: EVQLLESGGGLVQPGGSLRLSCAASGFTFSKYFMFWVRQAPGKGLEWVSYISPSGGMTRYADSVKGRFTISRDNSKNTLYLQMNSLRAEDTAVYYCARVGYGGNSDYWGQGTLVTVSS VL: DIQMTQSPSSVSASVGDRLTIICRASQDINRWLAWYQQTPGNAPKLLIHSATSLQSGVPSRFSGSGSGTDFTLTINSLQPEDFATYYCQQADSFPLTFGGGTKVEIK |
| 0.82 | – | XPA23 Fab, heavy chain T58S (Fab, V domains shown) VH: EVQLLESGGGLVQPGGSLRLSCAASGFTFSKYFMFWVRQAPGKGLEWVSVISPSGGMSRYADSVKGRFTISRDNSKNTLYLQMNSLRAEDTAVYYCARVGYGGNSDYWGQGTLVTVSS VL: DIQMTQSPSSVSASVGDRLTIICRASQDINRWLAWYQQTPGNAPKLLIHSATSLQSGVPSRFSGSGSGTDFTLTINSLQPEDFATYYCQQADSFPLTFGGGTKVEIK |
| – | no binding | XPA23 Fab, heavy chain V99Q (Fab, V domains shown) VH: EVQLLESGGGLVQPGGSLRLSCAASGFTFSKYFMFWVRQAPGKGLEWVSVISPSGGMTRYADSVKGRFTISRDNSKNTLYLQMNSLRAEDTAVYYCARQGYGGNSDYWGQGTLVTVSS VL: DIQMTQSPSSVSASVGDRLTIICRASQDINRWLAWYQQTPGNAPKLLIHSATSLQSGVPSRFSGSGSGTDFTLTINSLQPEDFATYYCQQADSFPLTFGGGTKVEIK |
| – | no binding | XPA23 Fab, heavy chain V99K (Fab, V domains shown) VH: EVQLLESGGGLVQPGGSLRLSCAASGFTFSKYFMFWVRQAPGKGLEWVSVISPSGGMTRYADSVKGRFTISRDNSKNTLYLQMNSLRAEDTAVYYCARKGYGGNSDYWGQGTLVTVSS VL: DIQMTQSPSSVSASVGDRLTIICRASQDINRWLAWYQQTPGNAPKLLIHSATSLQSGVPSRFSGSGSGTDFTLTINSLQPEDFATYYCQQADSFPLTFGGGTKVEIK |
| – | no binding | XPA23 Fab, heavy chain V50W (Fab, V domains shown) VH: EVQLLESGGGLVQPGGSLRLSCAASGFTFSKYFMFWVRQAPGKGLEWVSWISPSGGMTRYADSVKGRFTISRDNSKNTLYLQMNSLRAEDTAVYYCARVGYGGNSDYWGQGTLVTVSS VL: DIQMTQSPSSVSASVGDRLTIICRASQDINRWLAWYQQTPGNAPKLLIHSATSLQSGVPSRFSGSGSGTDFTLTINSLQPEDFATYYCQQADSFPLTFGGGTKVEIK |
| – | no binding | XPA23 Fab, heavy chain V50H (Fab, V domains shown) VH: EVQLLESGGGLVQPGGSLRLSCAASGFTFSKYFMFWVRQAPGKGLEWVSHISPSGGMTRYADSVKGRFTISRDNSKNTLYLQMNSLRAEDTAVYYCARVGYGGNSDYWGQGTLVTVSS VL: DIQMTQSPSSVSASVGDRLTIICRASQDINRWLAWYQQTPGNAPKLLIHSATSLQSGVPSRFSGSGSGTDFTLTINSLQPEDFATYYCQQADSFPLTFGGGTKVEIK |
| – | no binding | XPA23 Fab, heavy chain V99E (Fab, V domains shown) VH: EVQLLESGGGLVQPGGSLRLSCAASGFTFSKYFMFWVRQAPGKGLEWVSVISPSGGMTRYADSVKGRFTISRDNSKNTLYLQMNSLRAEDTAVYYCAREGYGGNSDYWGQGTLVTVSS VL: DIQMTQSPSSVSASVGDRLTIICRASQDINRWLAWYQQTPGNAPKLLIHSATSLQSGVPSRFSGSGSGTDFTLTINSLQPEDFATYYCQQADSFPLTFGGGTKVEIK |
| – | no binding | XPA23 Fab, heavy chain V50R (Fab, V domains shown) VH: EVQLLESGGGLVQPGGSLRLSCAASGFTFSKYFMFWVRQAPGKGLEWVSRISPSGGMTRYADSVKGRFTISRDNSKNTLYLQMNSLRAEDTAVYYCARVGYGGNSDYWGQGTLVTVSS VL: DIQMTQSPSSVSASVGDRLTIICRASQDINRWLAWYQQTPGNAPKLLIHSATSLQSGVPSRFSGSGSGTDFTLTINSLQPEDFATYYCQQADSFPLTFGGGTKVEIK |
| – | no binding | XPA23 Fab, heavy chain V50K (Fab, V domains shown) VH: EVQLLESGGGLVQPGGSLRLSCAASGFTFSKYFMFWVRQAPGKGLEWVSKISPSGGMTRYADSVKGRFTISRDNSKNTLYLQMNSLRAEDTAVYYCARVGYGGNSDYWGQGTLVTVSS VL: DIQMTQSPSSVSASVGDRLTIICRASQDINRWLAWYQQTPGNAPKLLIHSATSLQSGVPSRFSGSGSGTDFTLTINSLQPEDFATYYCQQADSFPLTFGGGTKVEIK |
| – | no binding | XPA23 Fab, heavy chain V50Q (Fab, V domains shown) VH: EVQLLESGGGLVQPGGSLRLSCAASGFTFSKYFMFWVRQAPGKGLEWVSQISPSGGMTRYADSVKGRFTISRDNSKNTLYLQMNSLRAEDTAVYYCARVGYGGNSDYWGQGTLVTVSS VL: DIQMTQSPSSVSASVGDRLTIICRASQDINRWLAWYQQTPGNAPKLLIHSATSLQSGVPSRFSGSGSGTDFTLTINSLQPEDFATYYCQQADSFPLTFGGGTKVEIK |
| 1.01 | – | XPA23 Fab, heavy chain T58Y (Fab, V domains shown) VH: EVQLLESGGGLVQPGGSLRLSCAASGFTFSKYFMFWVRQAPGKGLEWVSVISPSGGMYRYADSVKGRFTISRDNSKNTLYLQMNSLRAEDTAVYYCARVGYGGNSDYWGQGTLVTVSS VL: DIQMTQSPSSVSASVGDRLTIICRASQDINRWLAWYQQTPGNAPKLLIHSATSLQSGVPSRFSGSGSGTDFTLTINSLQPEDFATYYCQQADSFPLTFGGGTKVEIK |
| 0.12 | – | XPA23 Fab, heavy chain Y32E (Fab, V domains shown) VH: EVQLLESGGGLVQPGGSLRLSCAASGFTFSKEFMFWVRQAPGKGLEWVSVISPSGGMTRYADSVKGRFTISRDNSKNTLYLQMNSLRAEDTAVYYCARVGYGGNSDYWGQGTLVTVSS VL: DIQMTQSPSSVSASVGDRLTIICRASQDINRWLAWYQQTPGNAPKLLIHSATSLQSGVPSRFSGSGSGTDFTLTINSLQPEDFATYYCQQADSFPLTFGGGTKVEIK |
| – | no binding | XPA23 Fab, heavy chain V50D (Fab, V domains shown) VH: EVQLLESGGGLVQPGGSLRLSCAASGFTFSKYFMFWVRQAPGKGLEWVSDISPSGGMTRYADSVKGRFTISRDNSKNTLYLQMNSLRAEDTAVYYCARVGYGGNSDYWGQGTLVTVSS VL: DIQMTQSPSSVSASVGDRLTIICRASQDINRWLAWYQQTPGNAPKLLIHSATSLQSGVPSRFSGSGSGTDFTLTINSLQPEDFATYYCQQADSFPLTFGGGTKVEIK |
| 0.68 | – | XPA23 Fab, heavy chain Y32D (Fab, V domains shown) VH: EVQLLESGGGLVQPGGSLRLSCAASGFTFSKDFMFWVRQAPGKGLEWVSVISPSGGMTRYADSVKGRFTISRDNSKNTLYLQMNSLRAEDTAVYYCARVGYGGNSDYWGQGTLVTVSS VL: DIQMTQSPSSVSASVGDRLTIICRASQDINRWLAWYQQTPGNAPKLLIHSATSLQSGVPSRFSGSGSGTDFTLTINSLQPEDFATYYCQQADSFPLTFGGGTKVEIK |
| – | no binding | XPA23 Fab, heavy chain V99N (Fab, V domains shown) VH: EVQLLESGGGLVQPGGSLRLSCAASGFTFSKYFMFWVRQAPGKGLEWVSVISPSGGMTRYADSVKGRFTISRDNSKNTLYLQMNSLRAEDTAVYYCARNGYGGNSDYWGQGTLVTVSS VL: DIQMTQSPSSVSASVGDRLTIICRASQDINRWLAWYQQTPGNAPKLLIHSATSLQSGVPSRFSGSGSGTDFTLTINSLQPEDFATYYCQQADSFPLTFGGGTKVEIK |
| – | no binding | XPA23 Fab, heavy chain V50S (Fab, V domains shown) VH: EVQLLESGGGLVQPGGSLRLSCAASGFTFSKYFMFWVRQAPGKGLEWVSSISPSGGMTRYADSVKGRFTISRDNSKNTLYLQMNSLRAEDTAVYYCARVGYGGNSDYWGQGTLVTVSS VL: DIQMTQSPSSVSASVGDRLTIICRASQDINRWLAWYQQTPGNAPKLLIHSATSLQSGVPSRFSGSGSGTDFTLTINSLQPEDFATYYCQQADSFPLTFGGGTKVEIK |
